The values that follow come from patent US20230348555A1 (H LEE MOFFITT CANCER CENTER AND RESEARCH INSTITUTE, published 2023).

The target of assay [1] is T1, CD33 (Siglec 3) expressed in cells (human, UniProt P20138 18-364).
T1 construct: whole, on cells; In the co-immunoprecipitations it stood in cell lysates; also called SJCRH30-CD33 cells; CD33 on MDS-MDSC
The assay can be described thus: reverse immunoprecipitation: S100A9 IP from CD33/S100A9 co-transfected SJCRH30 lysate, blotted for CD33 (FIG. 3E).

In assay [2] the target is T2, CD33/Siglec 3 chimeric fusion protein (ectodomain of CD33 fused to the Fc portion of human IgG1, with a … (Homo sapiens; human, UniProt P20138 18-259).
T2 construct: extracellular domain; also called CD33-fusion; CD33-IgG; not shown: Fc region of human IgG1 (human Fc gamma) from the expression vector; C-terminal recognition site for E. coli biotin ligase
In words: immunoprecipitation of BM cell lysates from MDS patients with CD33-fusion, then mass spectrometry (FIG. 3A). An excerpt: Therefore, to identify potential ligand(s) for this receptor, a chimeric fusion protein with the ectodomain of CD33 and the Fe portion of human IgG (here on referred to as CD33-fusion) was produced. BM cell lysates from MDS patients were immunoprecipitated with the CD33-fusion followed by high throughput mass-spectrometric analysis on associated peptides. S100A9, an inflammatory signaling molecule known to activate MDSC, was among the most prominent protein bands identified (FIG. 3A). To confirm the specificity of the binding of this DAMP to CD33 both S100A8 and S100A9 transfectants were prepared in the rhabdomyosarcoma cell line SJCRH30, which lacks detectable expression of endogenous CD33, S100A8 or S100A9. […] To validate clinically the ligand specificity in MDS patients, the pull-down was compared with CD33-fusion from healthy PBMC and BM as well as MDS patients. As expected, the highest amount of S100A9 was precipitated from the BM of MDS patient specimens (FIG. 3F). Next, to understand the kinetics of S100A9 and CD33 interactions, SJCRH30 cells were transfected with either vector or CD33 and incubated with recombinant human (rh) S100A9 tagged with DDK ([…] epitope, same epitope as Flag).

Assay [3] has as its target T2, CD33/Siglec 3 chimeric fusion protein …. In words: immunofluorescence staining of transfected SJCRH30 cells with CD33-fusion and anti-human IgG1-APC (FIG. 3B). Here is the method:
Immunofluorescence was detected using a Zeiss automated upright fluorescence microscope and images captured by a Nikon camera with the Capture Program AxioVision. Detailed methods for immuno-staining on S100A9 transfected SJCRH30 cells have been published previously (Chen, X., et al. 2008. Blood 113(14):3226-34). Specifically, SJCRH30 cells, which lack detectable expression levels of both CD33 and S100A9, were transfected with either S100A9 or S100A8 (negative control) for 48-72 hours. After incubation with CD33-fusion for 30 min (2 μg/ml), 1×10⁴ cells were cytospinned onto slides and then stained with a secondary anti-human IgG1-APC before analysis by immunofluorescence microscopy. Similarly, SJCRH30 cells, stable-transfected with CD33, were incubated with rhS100A9 tagged with DDK for various time points and stained by the same methodology before analysis.
S100A9 is a native ligand for CD33. […] Therefore, to identify potential ligand(s) for this receptor, a chimeric fusion protein with the ectodomain of CD33 and the Fe portion of human IgG (here on referred to as CD33-fusion) was produced. BM cell lysates from MDS patients were immunoprecipitated with the CD33-fusion followed by high throughput mass-spectrometric analysis on associated peptides. S100A9, an inflammatory signaling molecule known to activate MDSC, was among the most prominent protein bands identified (FIG. 3A). […]

B1: S100A9 (ligand, human, UniProt P06702 1-114, looked up)
chain: MTCKMSQLERNIETIINTFHQYSVKLGHPDTLNQGEFKELVRKDLQNFLKKENKNEKVIEHIMEDLDTNADKQLSFEEFIMLMARLTWASHEKMHEGDEGPGHHHKPGLGEGTP
notes: One entry covers both the endogenous protein of human specimens and the protein expressed from transfected cDNA; also called MRP-14; calgranulin-B
For the molecule B1, the binding result in assay [1] and in assay [2] was “binds” each time.

B2: S100A8 (ligand, UniProt P05109 1-93, looked up)
chain: MLTELEKALNSIIDVYHKYSLIKGNFHAVYRDDLKKLLETECPQYIRKKGADVWFKELDINTDGAVNFQEFLILVIKMGVAAHKKSHEESHKE
notes: also called MRP-8; calgranulin A
B2: in assay [3], the binding result is recorded as “no binding (tested: 2 µg/ml CD33-fusion for 30 min)”.
